Test results taken from patent CN101896199A.

Tests used:
[1] = molecular target: HBV表面抗原 (hepatitis B virus surface antigen) (乙型肝炎病毒(HBV)); assay: ELISA titre (method of Shin YW et al. 2007); formulation after 3 months
[2] = molecular target: HBV表面抗原 (hepatitis B virus surface antigen) (乙型肝炎病毒(HBV)); assay: ELISA titre (method of Shin YW et al. 2007); formulation at 0 weeks, 25℃, 60% R.H.
[3] = molecular target: HBV表面抗原 (hepatitis B virus surface antigen) (乙型肝炎病毒(HBV)); assay: ELISA titre (method of Shin YW et al. 2007); formulation after 3 months, 25℃, 60% R.H.
[4] = molecular target: HBV表面抗原 (hepatitis B virus surface antigen) (乙型肝炎病毒(HBV)); assay: ELISA titre (method of Shin YW et al. 2007); formulation after 6 months, 25℃, 60% R.H.

Measured: 滴度(IU/mg)

Hepabig基因 (从细胞系HBAb-49, 登录号KCLRF-BP-00054, 产生的针对HBV表面抗原的人抗体) (antibody)
> 2000 IU/mg: all assays above
